Values quoted from earlier work as cited in article PMC3061978.
pKd: −log10 of the molar value.

Target: methylamine dehydrogenase (MADH) (Paracoccus denitrificans) (UniProt P22619)
Assay: kinetics

Chain of UniProt P22619 (P22619 58-188, chain 1 of 2): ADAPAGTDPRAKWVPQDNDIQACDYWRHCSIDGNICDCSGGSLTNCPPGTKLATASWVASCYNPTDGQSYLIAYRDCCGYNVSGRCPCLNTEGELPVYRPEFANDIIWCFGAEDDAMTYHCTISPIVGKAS
Chain of UniProt P22619 (P29894 29-417, chain 2 of 2, further chain): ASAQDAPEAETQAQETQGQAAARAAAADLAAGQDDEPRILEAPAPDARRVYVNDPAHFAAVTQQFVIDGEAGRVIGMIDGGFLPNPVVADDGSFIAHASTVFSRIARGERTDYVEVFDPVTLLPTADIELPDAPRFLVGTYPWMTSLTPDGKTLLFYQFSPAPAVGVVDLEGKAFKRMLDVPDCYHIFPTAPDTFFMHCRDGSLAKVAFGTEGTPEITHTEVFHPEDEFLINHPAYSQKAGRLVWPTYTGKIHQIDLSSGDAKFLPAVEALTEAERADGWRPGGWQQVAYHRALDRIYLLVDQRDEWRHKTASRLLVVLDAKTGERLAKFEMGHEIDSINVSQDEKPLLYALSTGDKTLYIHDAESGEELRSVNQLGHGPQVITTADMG

MauG (from UniProt Q51658)
pKd: 5.00
